According to patent US11931423B2, “Glucose oxidase-nanoparticle bioconjugates for cancer treatment” (UNIVERSITY OF PITTSBURGH—OF THE COMMONWEALTH SYSTEM OF …, priority 2017, dated 2024):

Columns and labels:
ROS = assay: TMB-based ROS activity assay; format: biochemical; settings: in the presence of glucose, 37° C., 2 h, pH 4
From the text: Production of ROS by the GOx-SPION bioconjugate was characterized by using a color agent 3,3′,5,5′-tetramethylbenzidine (TMB). TMB is known to be able to produce a blue color in the presence of ROS, which can be quantified by measuring the absorption at the wavelength of 650 nm. As a comparison, the levels of ROS produced by GOx and SPION alone, a mixture of GOx and SPION without conjugation, as well as the mAb-GOx-SPION bioconjugate were characterized.
The TMB-based ROS activity assay was carried out by using the following process. 20 μL SPION (5.0 mg/mL), GOx (1.0 mg/mL), a mixture of GOx (0.5 mg/mL) and SPION (2.5 mg/mL) without conjugation, GOx-SPION (5.0 mg/mL), and mAb-GOx-SPION (5.0 mg/mL) were each added into 380 μL of reaction buffer (0.1 M NaAc, pH 4, 50 μg TMB), followed by addition of either 100 μL of 100 mM glucose or 100 μL of DiH2O. After the mixtures were incubated at 37° C. for 2 h, the color change was detected with a Hitachi UV-Vis spectrophotometer.

4T1 cells = assay: In vivo therapeutic efficacy in 4T1 tumor-bearing mice; settings: for tumor growth (relative tumor volume): 4T1 tumors, single tail vein injection, 21 days, SPION-GOx 5 mg/kg, SPION 5 mg/kg, GOx 8.5 nmol/kg
Procedure: 4T1 cells (2×10^5 cell/mouse) were implanted subcutaneously into the right shoulders of female balb/c mice (˜20 g). In vivo therapeutic efficacy experiments were performed when the tumor reached 6˜8 mm in average diameter (10 days after implant). 3-5 mice were randomly assigned to 4 groups, to which the following agents were administered via tail vein injection: Group A were administered with a mixture of unconjugated SPION and GOx at the dosage of 5 mg/kg and 8.5 nmol/kg respectively; Group B were administered with GOx at the dosage of 8.5 nmol/kg; Group C were administered with 200 μL saline as control; and Group D were administered with a single dose of 5 mg/mL SPION-GOx in saline at a dosage of 5 mg/kg. All the administration was made at about the same time of the day. The size and size distribution of SPION-GOx bioconjugates were determined using DLS before injection to ensure the conjugation was complete and no precipitation was formed in the suspension. The SPION-GOx PBS solution to be used on animal study was tested using a TMB assay to verify the effective generation of ROS. The weight and health conditions of the mice were monitored daily. The tumor sizes were measured and recorded every other day in the first 12 days, and then every 3 days until 21 days post injection, at which time point the tumors were harvested. The volumes of the tumors were calculated by the following equation: V=L×W^2/2.

[1] = system: 4T1 breast cancer xenografts; assay: Biodistribution in mice with 4T1 breast cancer xenografts; format: in vivo; settings: 150 μg, mice with 4T1 xenografts, 1 day after injection
Procedure: To visualize the biodistribution of GOx-SPION within mouse models, GOx-SPION was tagged with a fluorescent dye (Cy7 moiety). 150 μg of the resulting SPION-GOx-Cy7 bioconjugate was administered to 5 mice having 4T1 breast cancer xenografts. The biodistribution of the bioconjugates was imaged at 1 day, 3 days, 4 days, 5 days, 6 days, and 7 days after injection (see FIGS. 12A-12B).

Molecule | production of ROS (peak height at 650 nm, TMB) (ROS) | tumor growth (relative tumor volume) (4T1 cells) | biodistribution (uptake) [1] | side effects (weight loss or death) (4T1 cells; 4T1 tumor mice, 5 mg/kg tail vein) | body weight loss during treatment (4T1 cells; mouse, in vivo, 5 mg/kg)
glucose oxidase (protein, UniProt P13006 17-605, looked up) Glucose oxidase: LPHYIRSNGIEASLLTDPKDVSGRTVDYIIAGGGLTGLTTAARLTENPNISVLVIESGSYESDRGPIIEDLNAYGDIFGSSVDHAYETVELATNNQTALIRSGNGLGGSTLVNGGTWTRPHKAQVDSWETVFGNEGWNWDNVAAYSLQAERARAPNAKQIAAGHYFNASCHGVNGTVHAGPRDTGDDYSPIVKALMSAVEDRGVPTKKDFGCGDPHGVSMFPNTLHEDQVRSDAAREWLLPNYQRPNLQVLTGQYVGKVLLSQNGTTPRAVGVEFGTHKGNTHNVYAKHEVLLAAGSAVSPTILEYSGIGMKSILEPLGIDTVVDLPVGLNLQDQTTATVRSRITSAGAGQGQAAWFATFNETFGDYSEKAHELLNTKLEQWAEEAVARGGFHNTTALLIQYENYRDWIVNHNVAYSELFLDTAGVASFDVWDLLPFTRGYVHILDKDPYLHHFAYDPQYFLNELDLLGQAAATQLARNISNSGAMQTYFAGETIPGDNLAYDADLSAWTEYIPYHFRPNYHGVGTCSMMPKEMGGVVDNAARVYGVQGLRVIDGSIPPTQMSSHVMTVFYAMALKISDAILEDYASMQ | neither GOx nor SPION alone is able to produce ROS | inhibited tumor growth to a much lesser extent | – | – | –
SPION-GOx-Cy7: GOx-SPION tagged with a fluorescent dye (Cy7 moiety) (conjugate, UniProt P13006 17-605, looked up, SPION conjugate, Cy7 dye) Glucose oxidase: LPHYIRSNGIEASLLTDPKDVSGRTVDYIIAGGGLTGLTTAARLTENPNISVLVIESGSYESDRGPIIEDLNAYGDIFGSSVDHAYETVELATNNQTALIRSGNGLGGSTLVNGGTWTRPHKAQVDSWETVFGNEGWNWDNVAAYSLQAERARAPNAKQIAAGHYFNASCHGVNGTVHAGPRDTGDDYSPIVKALMSAVEDRGVPTKKDFGCGDPHGVSMFPNTLHEDQVRSDAAREWLLPNYQRPNLQVLTGQYVGKVLLSQNGTTPRAVGVEFGTHKGNTHNVYAKHEVLLAAGSAVSPTILEYSGIGMKSILEPLGIDTVVDLPVGLNLQDQTTATVRSRITSAGAGQGQAAWFATFNETFGDYSEKAHELLNTKLEQWAEEAVARGGFHNTTALLIQYENYRDWIVNHNVAYSELFLDTAGVASFDVWDLLPFTRGYVHILDKDPYLHHFAYDPQYFLNELDLLGQAAATQLARNISNSGAMQTYFAGETIPGDNLAYDADLSAWTEYIPYHFRPNYHGVGTCSMMPKEMGGVVDNAARVYGVQGLRVIDGSIPPTQMSSHVMTVFYAMALKISDAILEDYASMQ | – | – | initial uptake of the bioconjugates was to tumor cells | – | –
GOx-SPION: glucose oxidase conjugated to superparamagnetic iron oxide nanoparticle via Tz/TCO bioorthogonal ligation (conjugate, UniProt P13006 17-605, looked up, superparamagnetic iron oxide nanoparticle) Glucose oxidase: LPHYIRSNGIEASLLTDPKDVSGRTVDYIIAGGGLTGLTTAARLTENPNISVLVIESGSYESDRGPIIEDLNAYGDIFGSSVDHAYETVELATNNQTALIRSGNGLGGSTLVNGGTWTRPHKAQVDSWETVFGNEGWNWDNVAAYSLQAERARAPNAKQIAAGHYFNASCHGVNGTVHAGPRDTGDDYSPIVKALMSAVEDRGVPTKKDFGCGDPHGVSMFPNTLHEDQVRSDAAREWLLPNYQRPNLQVLTGQYVGKVLLSQNGTTPRAVGVEFGTHKGNTHNVYAKHEVLLAAGSAVSPTILEYSGIGMKSILEPLGIDTVVDLPVGLNLQDQTTATVRSRITSAGAGQGQAAWFATFNETFGDYSEKAHELLNTKLEQWAEEAVARGGFHNTTALLIQYENYRDWIVNHNVAYSELFLDTAGVASFDVWDLLPFTRGYVHILDKDPYLHHFAYDPQYFLNELDLLGQAAATQLARNISNSGAMQTYFAGETIPGDNLAYDADLSAWTEYIPYHFRPNYHGVGTCSMMPKEMGGVVDNAARVYGVQGLRVIDGSIPPTQMSSHVMTVFYAMALKISDAILEDYASMQ | synergistic activity between conjugated GOx and SPION | significant slowdown of tumor growth | – | no severe side effects | did not experience any significant body weight loss
